Consider two molecules from US20070160576A1, “IL-17A/F heterologous polypeptides and therapeutic uses thereof” (Genentech, Inc., priority 2001, published 2007).

Test [1] addresses T1, IL-17RH1 (PRO5801) extracellular domain, purified, monomeric (human, UniProt Q9NRM6 18-292).
T1 construct: extracellular domain
T1 sequence (looked up): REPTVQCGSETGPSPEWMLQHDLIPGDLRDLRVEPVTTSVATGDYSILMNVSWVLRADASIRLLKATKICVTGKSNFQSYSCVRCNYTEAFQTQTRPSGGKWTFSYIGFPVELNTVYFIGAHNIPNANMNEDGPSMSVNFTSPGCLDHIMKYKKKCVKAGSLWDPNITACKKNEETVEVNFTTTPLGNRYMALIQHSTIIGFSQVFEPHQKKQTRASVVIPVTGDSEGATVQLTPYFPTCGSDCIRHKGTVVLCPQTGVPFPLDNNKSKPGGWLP
In words: SPR (BIAcore), IL-17F immobilized. As for the experimental part: (§1) Sensorgrams-were obtained for a series of six, two-fold serially diluted protein solutions. The highest concentration used was 1000 or 500 nM protein and the solutions were prepared in the running buffer, PBS containing 0.05% Tween-20. The sensor chip surface was regenerated between binding cycles by injection of a 25 ┘L aliquot of 0.1 M acetic acid, 0.2 M NaCl, pH 3 to elute non-covalent bound protein. Sensorgrams were evaluated according to a 1:1 binding model by non-linear regression analysis using software supplied by the manufacturer. […] The amount of bound receptor was determined from the resonance signal obtained after completion of the association phase.
For orientation: In SPR one partner is held on a chip, and binding of the other changes the refractive index at the surface.

In test [2] the target is T2, IL-17R on transfected Cos cells (human, UniProt Q96F46 33-866).
T2 construct: whole, on cells; also called Cos cells transfected with IL-17R
The test is described as follows: binding to transfected Cos cells; data not shown.

For test [3], the target named is T3, IL-17RH1 (Homo sapiens, UniProt Q9NRM6).
T3 construct: the extracellular domains (ECDs) of either of the two receptors IL-17R (designated PRO1) and IL-17RH1 (PRO5801)
T3 sequence (Q9NRM6 18-292 limits assumed): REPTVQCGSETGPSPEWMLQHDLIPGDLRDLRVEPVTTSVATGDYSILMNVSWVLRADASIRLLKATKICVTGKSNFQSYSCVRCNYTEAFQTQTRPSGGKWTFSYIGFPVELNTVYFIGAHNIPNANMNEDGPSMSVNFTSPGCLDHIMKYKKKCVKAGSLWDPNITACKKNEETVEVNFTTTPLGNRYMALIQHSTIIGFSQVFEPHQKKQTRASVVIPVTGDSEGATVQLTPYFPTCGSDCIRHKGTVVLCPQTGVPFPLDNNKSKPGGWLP
In words: SPR competition for receptor binding to immobilized IL-17E. The settings on record: IL-17RH1 31 nM; IL-17F at 1.3 ┘M. As for the experimental part: The kinetics and affinity of IL-17, IL-17E (PRO10272), or IL-17F (PRO20110) binding to IL-17R or IL-17RH1 (PRO5801) were determined by SPR measurements on a Pharmacia BIAcore 1000 instrument (Phamacia Biosensor, Piscataway N.J.). IL-17 ligand or receptor was immobilized onto a flow cell of a CM5 sensor chip via random coupling to amino groups, N-hydroxysuccinimide chemistry, by using a protocol developed by the manufacturer. An immobilization level of about 500 resonance units (RU) was obtained for IL-17R, IL-17RH1, and IL-17F, whereas IL-17 and IL-17E immobilization levels were 1200 and 1500 RU, respectively. A strong signal was obtained for IL-17R binding to immobilized IL-17. […] After blocking unreacted sites with ethanolamine, binding measurements were performed using a flow rate of 25 ┘L/min. Sensorgrams-were obtained for a series of six, two-fold serially diluted protein solutions. The highest concentration used was 1000 or 500 nM protein and the solutions were prepared in the running buffer, PBS containing 0.05% Tween-20. […] Sensorgrams were evaluated according to a 1:1 binding model by non-linear regression analysis using software supplied by the manufacturer. […] The amount of bound receptor was determined from the resonance signal obtained after completion of the association phase. […]

The target of test [4] is T1, IL-17RH1 (PRO5801) extracellular …. The test is described as follows: SPR (BIAcore 1000), IL-17RH1 immobilized, 1:1 model.
Test [5] has as its target T4, IL-17R (PRO1) extracellular domain, purified, monomeric (human, UniProt Q96F46 33-320).
T4 construct: extracellular domain; also called human IL-17 receptor
In words: SPR (BIAcore). As for the experimental part:
as §1

The target of test [6] is T5, PRO5801 (human IL-17RH1 receptor) (Homo sapiens, UniProt Q9NRM6).
T5 sequence (Q9NRM6 18-502): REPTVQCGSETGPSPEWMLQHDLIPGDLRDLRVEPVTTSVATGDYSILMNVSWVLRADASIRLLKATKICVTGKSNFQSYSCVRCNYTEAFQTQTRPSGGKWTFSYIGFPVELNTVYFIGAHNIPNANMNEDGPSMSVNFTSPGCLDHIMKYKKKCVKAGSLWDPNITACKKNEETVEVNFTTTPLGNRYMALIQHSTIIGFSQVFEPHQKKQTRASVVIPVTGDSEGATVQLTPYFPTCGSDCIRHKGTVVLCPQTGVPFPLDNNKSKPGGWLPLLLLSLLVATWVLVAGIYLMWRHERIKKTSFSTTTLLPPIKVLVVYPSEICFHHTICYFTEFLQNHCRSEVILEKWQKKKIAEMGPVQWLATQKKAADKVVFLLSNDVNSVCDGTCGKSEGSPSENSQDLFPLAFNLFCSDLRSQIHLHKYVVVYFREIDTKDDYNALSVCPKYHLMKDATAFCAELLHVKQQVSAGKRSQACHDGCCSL
The test is described as follows: Receptor/ligand interaction screening assay (immunoadhesin). It counts as binding. As for the experimental part: In general, the assay is performed as follows. A PRO polypeptide of the present invention suspected of being a ligand for a receptor is expressed as a fusion protein containing the Fc domain of human IgG (an immunoadhesin). Receptor-ligand binding is detected by allowing interaction of the immunoadhesin polypeptide with cells (e.g. Cos cells) expressing candidate PRO polypeptide receptors and visualization of bound immunoadhesin with fluorescent reagents directed toward the Fc fusion domain and examination by microscope. Cells expressing candidate receptors are produced by transient transfection, in parallel, of defined subsets of a library of cDNA expression vectors encoding PRO polypeptides that may function as receptor molecules. Cells are then incubated for 1 hour in the presence of the PRO polypeptide immunoadhesin being tested for possible receptor binding. The cells are then washed and fixed with paraformaldehyde. The cells are then incubated with fluorescent conjugated antibody directed against the Fc portion of the PRO polypeptide immunoadhesin (e.g. FITC conjugated goat anti-human-Fc antibody). The cells are then washed again and examined by microscope. A positive interaction is judged by the presence of fluorescent labeling of cells transfected with cDNA encoding a particular PRO polypeptide receptor or pool of receptors and an absence of similar fluorescent labeling of similarly prepared cells that have been transfected with other cDNA or pools of cDNA. If a defined pool of cDNA expression vectors is judged to be positive for interaction with a PRO polypeptide immunoadhesin, the individual cDNA species that comprise the pool are tested individually (the pool is “broken down”) to determine the specific cDNA that encodes a receptor able to interact with the PRO polypeptide immunoadhesin.
In another embodiment of this assay, an epitope-tagged potential ligand PRO polypeptide (e.g., 8 histidine “His” tag) is allowed to interact with a panel of potential receptor PRO polypeptide molecules that have been expressed as fusions with the Fc domain of human IgG (immunoadhesins). Following a 1 hour co-incubation with the epitope tagged PRO polypeptide, the candidate receptors are each immunoprecipitated with protein A beads and the beads are washed. Potential ligand interaction is determined by Western blot analysis of the immunoprecipitated complexes with antibody directed towards the epitope tag. An interaction is judged to occur if a band of the anticipated molecular weight of the epitope tagged protein is observed in the Western blot analysis with a candidate receptor, but is not observed to occur with the other members of the panel of potential receptors.

The target in test [7] is T6, IL-17R (Homo sapiens, UniProt Q96F46).
T6 construct: the extracellular domains (ECDs) of either of the two receptors IL-17R (designated PRO1) and IL-17RH1 (PRO5801)
In words: SPR (BIAcore) binding measurements. The following applies: IL-17R in solution, cytokine immobilized. On the procedure:
(§2) The kinetics and affinity of IL-17, IL-17E (PRO10272), or IL-17F (PRO20110) binding to IL-17R or IL-17RH1 (PRO5801) were determined by SPR measurements on a Pharmacia BIAcore 1000 instrument (Phamacia Biosensor, Piscataway N.J.). IL-17 ligand or receptor was immobilized onto a flow cell of a CM5 sensor chip via random coupling to amino groups, N-hydroxysuccinimide chemistry, by using a protocol developed by the manufacturer. An immobilization level of about 500 resonance units (RU) was obtained for IL-17R, IL-17RH1, and IL-17F, whereas IL-17 and IL-17E immobilization levels were 1200 and 1500 RU, respectively. A strong signal was obtained for IL-17R binding to immobilized IL-17. […] After blocking unreacted sites with ethanolamine, binding measurements were performed using a flow rate of 25 ┘L/min. Sensorgrams-were obtained for a series of six, two-fold serially diluted protein solutions. The highest concentration used was 1000 or 500 nM protein and the solutions were prepared in the running buffer, PBS containing 0.05% Tween-20. The sensor chip surface was regenerated between binding cycles by injection of a 25 ┘L aliquot of 0.1 M acetic acid, 0.2 M NaCl, pH 3 to elute non-covalent bound protein. Sensorgrams were evaluated according to a 1:1 binding model by non-linear regression analysis using software supplied by the manufacturer. In separate experiments to measure competition between IL-17 variants for binding receptors, a fixed concentration of receptor was incubated with a varied concentration of IL-17 protein followed by injection of this mixture onto a flow cell having immobilized IL-17 protein. The amount of bound receptor was determined from the resonance signal obtained after completion of the association phase.

For test [8], the target named is T7, IL-17RH1 (PRO5801) (Homo sapiens, UniProt Q9NRM6).
T7 construct: the extracellular domains (ECDs) of either of the two receptors IL-17R (designated PRO1) and IL-17RH1 (PRO5801)
T7 sequence (Q9NRM6 18-292 limits assumed): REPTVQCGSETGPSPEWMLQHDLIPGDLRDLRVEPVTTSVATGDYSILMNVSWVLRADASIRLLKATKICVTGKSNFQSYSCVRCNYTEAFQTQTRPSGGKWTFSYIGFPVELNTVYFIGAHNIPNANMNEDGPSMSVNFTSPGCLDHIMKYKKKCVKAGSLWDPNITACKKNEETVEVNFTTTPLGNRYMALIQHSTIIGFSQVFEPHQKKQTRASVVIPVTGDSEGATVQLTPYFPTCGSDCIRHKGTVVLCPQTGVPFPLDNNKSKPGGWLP
The test is described as follows: SPR (BIAcore) binding measurements. The settings on record: for Koff × 10^4: value is Koff × 10^4; for Kon × 10^−5: value is Kon × 10^−5. As for the experimental part: as §2

The target in test [9] is T1, IL-17RH1 (PRO5801) extracellular …. In words: SPR (BIAcore 1000), IL-17E immobilized, 1:1 model. As for the experimental part: as §1
Setting [10] is: immobilized IL-17E, ligand IL-17RH1.
Where [11] appears, read: immobilized IL-17RH1, ligand IL-17E.

B1: human IL-17F (PRO20110) (ligand)
chain: RKIPKVGHTFFQKPESCPPVPGGSMKLDIGIINENQRVSMSRNIESRSTSPWNYTVTWDPNRYPSEVVQAQCRNLGCINAQGKEDISMNSVPIQQETLVVRRKHQGCSVSFQLEKVLVTVGCTCVTPVIHHVQ
notes: disulfide-linked homodimer, glycosylated at Asn 53
As for B1, the binding result in [1] is recorded as “no binding (tested: up to 0.5 µM (printed 0.5 ┘M))”; in test [2], “binds”.

B2: human IL-17E (PRO10272), protein used in SPR (ligand, UniProt Q9H293 33-177, looked up)
chain: YSHWPSCCPSKGQDTSEELLRWSTVPVPPLEPARPNRHPESCRASEDGPLNSRAISPWRYELDRDLNRLPQDLYHARCLCPHCVSLQTGSHMDPRGNSELLYHNQTVFYRRPCHGEKGTHKGYCLERRLYRVSLACVCVRPRVMG
notes: construct not described
In the case of B2, the “competition for binding of IL-17RH1 to immobilized IL-17E” value in [3] is on record as “completely inhibited”. Also, in [4], the affinity, expressed as Kd, was 1.4 nM; the koff was determined as 0.00062 s⁻¹; the kon was determined as 430000 M⁻¹ s⁻¹. The binding result in test [5] was “no binding”. Further, the “binding to IL-17RH1 receptor (PRO5801)” value in test [6] is listed as “binds to”. Moreover, the “SPR binding to IL-17R (in words)” value in [7] is “no binding was observed”. The “SPR binding to IL-17RH1 (in words)” value in test [8] is “high affinity binding”. Moreover, in test [8] (setting [10]), the “Koff × 10^4” value came to 7.0 s^−1 and the “Kon × 10^−5” value is recorded as 6.7 M^−1 s^−1. Further, in test [8] (setting [11]), the “Koff × 10^4” value is 6.2 s^−1 and the “Kon × 10^−5” value is given as 4.3 M^−1 s^−1. Besides, in test [9], the Kd came to 1.1 nM, the off-rate constant (koff) is 0.0007 s⁻¹ and the kon is 670000 M⁻¹ s⁻¹.

By Kd is commonly meant the equilibrium constant for the complex coming apart. Higher therefore signals lower affinity. In general, koff refers to the first-order rate constant of dissociation. Low readings indicate slow dissociation, high ones fast dissociation. What is called kon is a measure of how fast the partners come together.
